Results reported in US7060795 (KIMBERLY CLARK WORLDWIDE, dated 2006).

How the values were obtained:
[1] = target: T1, matrix metalloproteinase-9 (MMP-9) (UniProt P14780 107-707, limits assumed); test: fluoresceinated collagen hydrolysis assay, Dixon plot, competitive inhibition assumed; target MMP-9
Description: (§1) Inhibition of MMPs: The assay employed measured the enzymatic hydrolysis of fluoresceinated collagen by MMP-9 or other matrix metalloproteinases as a function of time. Fluoresceinated collagen at a concentration of 5 μM was added to reaction buffer (50 mM Tris-HCl (pH 7.6), 150 mM NaCl, 5 mM CaCl_2, 0.1 mM NaN_3) and was placed into a Spectrosil quartz fluorimeter cuvette. MMP at a concentration of 0.1 μM was mixed with varying amounts of polypeptide inhibitor (SEQ ID NO:5 or SEQ ID NO:20) and incubated at 25° C. for 10 minutes in order to effect binding. The protein mixture was added to the collagen substrate, and mixed. Fluorescence emission intensity at 520 nm was measured as a function of time using an excitation wavelength of 495 nm in a Shimadzu RF5301 fluorimeter. The fluorescein release assay was used to determine the inhibitory constant (K_i) of the protein based matrix metalloproteinase inhibitor ([I]) according to Segel (1993) by using Dixon plots (1/v vs. [I]), where: […]

[2] = target: T1, matrix metalloproteinase-9 (MMP-9); test: SPR (BiaCore-X, CM-5 chip); KA = ka/kd
[3] = target: T2, matrix metalloproteinase-1 (MMP-1) (UniProt P03956 100-469, limits assumed); test: fluoresceinated collagen hydrolysis assay, Dixon plot, competitive inhibition assumed; target MMP-1
T2 sequence (looked up): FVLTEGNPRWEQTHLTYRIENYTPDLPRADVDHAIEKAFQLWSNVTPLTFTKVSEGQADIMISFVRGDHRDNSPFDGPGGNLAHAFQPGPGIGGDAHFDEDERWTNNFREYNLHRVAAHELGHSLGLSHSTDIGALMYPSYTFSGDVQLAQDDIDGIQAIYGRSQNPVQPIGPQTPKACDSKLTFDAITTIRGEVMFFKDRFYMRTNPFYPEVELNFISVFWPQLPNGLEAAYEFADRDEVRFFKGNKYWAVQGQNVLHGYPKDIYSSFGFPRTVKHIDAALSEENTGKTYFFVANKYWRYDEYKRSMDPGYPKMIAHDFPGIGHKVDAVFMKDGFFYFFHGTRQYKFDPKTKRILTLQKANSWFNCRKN
Description: as §1

[4] = target: T1, matrix metalloproteinase-9 (MMP-9); test: SPR (BiaCore-X, CM-5 chip); MMP-9 coupled to the chip, SEQ ID NO:5 polypeptide in PBS flowed over

T1 sequence (P14780 107-707 limits assumed): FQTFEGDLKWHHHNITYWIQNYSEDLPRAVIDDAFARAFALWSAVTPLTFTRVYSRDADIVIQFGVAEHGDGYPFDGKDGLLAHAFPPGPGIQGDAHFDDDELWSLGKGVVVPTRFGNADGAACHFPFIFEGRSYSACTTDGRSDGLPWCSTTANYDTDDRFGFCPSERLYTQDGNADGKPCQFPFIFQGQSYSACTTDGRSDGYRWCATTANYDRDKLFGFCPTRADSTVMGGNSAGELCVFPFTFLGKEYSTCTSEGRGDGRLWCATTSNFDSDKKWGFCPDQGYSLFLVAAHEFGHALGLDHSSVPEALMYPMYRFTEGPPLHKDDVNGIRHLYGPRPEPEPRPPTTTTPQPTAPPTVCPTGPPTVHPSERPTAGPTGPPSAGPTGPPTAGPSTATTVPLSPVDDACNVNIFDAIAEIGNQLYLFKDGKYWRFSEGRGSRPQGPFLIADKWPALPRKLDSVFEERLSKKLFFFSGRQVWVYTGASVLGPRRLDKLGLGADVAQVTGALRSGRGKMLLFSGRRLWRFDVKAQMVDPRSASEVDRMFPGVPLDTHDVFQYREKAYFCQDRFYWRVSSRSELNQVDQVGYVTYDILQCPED

Ki [1]: 16 nM
Ka [2]: 1.5e+08 M⁻¹
Ki [3]: 12 nM
koff [4]: 0.0013 s⁻¹
kon [4]: 200000 M⁻¹ s⁻¹
B1: SEQ ID NO:5 polypeptide (DST; Delta Synthetic TIMP), purified Fraction IV protein (designed binder)
chain: CSCSPVHPQQAFSNADVVIRAKAVSEKEVDSGNDIYGNPIKRIQYEIKQIKMFKGPEKDIEFIYTAPSSAVCGVSLDVGGKKEYCIAGKAEGDGKMHITLCDFICPW
notes: It was expressed in E. coli as an MBP fusion and cleaved with Factor Xa; It is monomeric by gel filtration; Three disulfide bonds; also called DST protein
